Results: publication PMC6797610, “Functional Analysis of 3-Dehydroquinate Dehydratase/Shikimate Dehydrogenases Involved in Shikimate Pathway in Camellia sinensis” (Frontiers in Plant Science, 2019)

Assays:
CsSDHa = molecular target: T1, CsSDHa (Camellia sinensis, UniProt A0A3G3BK14); experiment: HPLC product quantification; format: biochemical; details: 1 mM each, BTP-HCl pH 7.5, 30°C
T1 construct: SDH unit only of CsDQD/SDHa (Ile-328 to Gly-588 in AtSDH numbering), MBP fusion from pMAL-c2x, E. coli

CsDQD/SDHb [1] = molecular target: CsDQD/SDHb (Camellia sinensis, UniProt A0A3G3BK08); experiment: HPLC product quantification; format: biochemical; details: SA oxidation, 1 mM SA, 1 mM NADP+; BTP-HCl pH 7.5, 30°C, 30 min; very low activity, Km not determinable
CsDQD/SDHb [2] = molecular target: CsDQD/SDHb (Camellia sinensis, UniProt A0A3G3BK08, G296T/D398N/I399R/D400T, form not given); experiment: HPLC product quantification; format: biochemical; details: MTCsDQD/SDHb; SA oxidation with NADP+; residue numbers after AtDQD/SDH
[3] = substrate: NC(=O)C1=CN([C@@H]2O[C@H](COP(=O)(O)OP(=O)(O)OC[C@H]3O[C@@H](n4cnc5c(N)ncnc54)[C@H](OP(=O)(O)O)[C@@H]3O)[C@@H](O)[C@H]2O)C=CC1; experiment: HPLC product assay, Michaelis-Menten; format: biochemical, Camellia sinensis; details: 3-DHS reduction to SA, co-substrate 3-DHS 1.5 mM, BTP-HCl pH 8.5, 30°C, 3 min
Source text: (§1) HPLC product assay, Michaelis-Menten on CsDQD/SDHc

[4] = substrate: O=C(O)C1=CC(=O)[C@@H](O)[C@H](O)C1; experiment: HPLC product assay, Michaelis-Menten; format: biochemical, Camellia sinensis; details: 3-DHS reduction to SA, co-substrate NADPH 1.5 mM, BTP-HCl pH 8.5, 30°C, 3 min
Source text: as §1

[5] = substrate: NC(=O)c1ccc[n+]([C@@H]2O[C@H](COP(=O)(O)OP(=O)(O)OC[C@H]3O[C@@H](n4cnc5c(N)ncnc54)[C@H](OP(=O)(O)O)[C@@H]3O)[C@@H](O)[C@H]2O)c1; experiment: HPLC product assay, Michaelis-Menten; format: biochemical, Camellia sinensis; details: SA oxidation to 3-DHS, co-substrate SA 1.5 mM, BTP-HCl pH 8.5, 30°C, 3 min
Source text: as §1

[6] = substrate: O=C(O)C1=C[C@@H](O)[C@@H](O)[C@H](O)C1; experiment: HPLC product assay, Michaelis-Menten; format: biochemical, Camellia sinensis; details: SA oxidation to 3-DHS, co-substrate NADP+ 1.5 mM, BTP-HCl pH 8.5, 30°C, 3 min
Source text: as §1

[7] = substrate: NC(=O)C1=CN([C@@H]2O[C@H](COP(=O)(O)OP(=O)(O)OC[C@H]3O[C@@H](n4cnc5c(N)ncnc54)[C@H](OP(=O)(O)O)[C@@H]3O)[C@@H](O)[C@H]2O)C=CC1; experiment: HPLC product assay, Michaelis-Menten; format: biochemical, Camellia sinensis; details: 3-DHS reduction to SA, co-substrate 3-DHS 1.5 mM, BTP-HCl pH 8.5, 30°C, 3 min; remark: listed apart in the source
Source text: (§2) HPLC product assay, Michaelis-Menten on CsDQD/SDHd

[8] = substrate: O=C(O)C1=CC(=O)[C@@H](O)[C@H](O)C1; experiment: HPLC product assay, Michaelis-Menten; format: biochemical, Camellia sinensis; details: 3-DHS reduction to SA, co-substrate NADPH 1.5 mM, BTP-HCl pH 8.5, 30°C, 3 min; remark: listed apart in the source
Source text: as §2

[9] = substrate: NC(=O)c1ccc[n+]([C@@H]2O[C@H](COP(=O)(O)OP(=O)(O)OC[C@H]3O[C@@H](n4cnc5c(N)ncnc54)[C@H](OP(=O)(O)O)[C@@H]3O)[C@@H](O)[C@H]2O)c1; experiment: HPLC product assay, Michaelis-Menten; format: biochemical, Camellia sinensis; details: SA oxidation to 3-DHS, co-substrate SA 1.5 mM, BTP-HCl pH 8.5, 30°C, 3 min; remark: listed apart in the source
Source text: as §2

[10] = substrate: O=C(O)C1=C[C@@H](O)[C@@H](O)[C@H](O)C1; experiment: HPLC product assay, Michaelis-Menten; format: biochemical, Camellia sinensis; details: SA oxidation to 3-DHS, co-substrate NADP+ 1.5 mM, BTP-HCl pH 8.5, 30°C, 3 min; remark: listed apart in the source
Source text: as §2

[11] = substrate: NC(=O)C1=CN([C@@H]2O[C@H](COP(=O)(O)OP(=O)(O)OC[C@H]3O[C@@H](n4cnc5c(N)ncnc54)[C@H](OP(=O)(O)O)[C@@H]3O)[C@@H](O)[C@H]2O)C=CC1; experiment: HPLC product assay, Michaelis-Menten; format: biochemical, Camellia sinensis; details: 3-DHS reduction to SA, co-substrate 3-DHS 1.5 mM, BTP-HCl pH 8.5, 30°C, 3 min; remark: listed apart in the source
Source text: (§3) HPLC product assay, Michaelis-Menten on CsDQD/SDHa

[12] = substrate: O=C(O)C1=CC(=O)[C@@H](O)[C@H](O)C1; experiment: HPLC product assay, Michaelis-Menten; format: biochemical, Camellia sinensis; details: 3-DHS reduction to SA, co-substrate NADPH (per table; b27 pairs the cofactors the other way round), 1.5 mM, BTP-HCl pH 8.5, 30°C, 3 min
Source text: as §3

[13] = substrate: NC(=O)c1ccc[n+]([C@@H]2O[C@H](COP(=O)(O)OP(=O)(O)OC[C@H]3O[C@@H](n4cnc5c(N)ncnc54)[C@H](OP(=O)(O)O)[C@@H]3O)[C@@H](O)[C@H]2O)c1; experiment: HPLC product assay, Michaelis-Menten; format: biochemical, Camellia sinensis; details: SA oxidation to 3-DHS, co-substrate SA 1.5 mM, BTP-HCl pH 8.5, 30°C, 3 min; remark: listed apart in the source
Source text: as §3

[14] = substrate: O=C(O)C1=C[C@@H](O)[C@@H](O)[C@H](O)C1; experiment: HPLC product assay, Michaelis-Menten; format: biochemical, Camellia sinensis; details: SA oxidation to 3-DHS, co-substrate NADP+ (per table; b27 pairs the cofactors the other way round), 1.5 mM, BTP-HCl pH 8.5, 30°C, 3 min
Source text: as §3

Chain of CsDQD/SDHb (Camellia sinensis, UniProt A0A3G3BK08) (A0A3G3BK08 entry or part of it): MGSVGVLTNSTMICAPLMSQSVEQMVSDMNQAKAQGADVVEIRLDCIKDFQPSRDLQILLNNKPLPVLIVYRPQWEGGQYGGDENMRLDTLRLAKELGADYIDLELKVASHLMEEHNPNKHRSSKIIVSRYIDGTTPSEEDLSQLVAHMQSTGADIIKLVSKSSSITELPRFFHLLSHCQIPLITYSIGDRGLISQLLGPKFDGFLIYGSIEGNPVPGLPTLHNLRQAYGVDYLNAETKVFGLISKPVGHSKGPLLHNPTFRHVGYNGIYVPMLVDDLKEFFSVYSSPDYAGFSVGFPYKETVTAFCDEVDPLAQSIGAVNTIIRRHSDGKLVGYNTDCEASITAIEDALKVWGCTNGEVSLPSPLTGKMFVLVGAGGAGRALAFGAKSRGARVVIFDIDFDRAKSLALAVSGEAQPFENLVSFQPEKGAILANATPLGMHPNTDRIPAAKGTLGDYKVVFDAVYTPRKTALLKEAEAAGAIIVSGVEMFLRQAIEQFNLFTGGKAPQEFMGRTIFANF
Chain of CsDQD/SDHb (Camellia sinensis, UniProt A0A3G3BK08, G296T/D398N/I399R/D400T, form not given) (A0A3G3BK08 entry or part of it G296T/D398N/I399R/D400T, form open): as the sequence (A0A3G3BK08 entry or part of it) above, with G296T, D398N, I399R, D400T counted along it

Molecule: O=C(O)C1=CC(=O)[C@@H](O)[C@H](O)C1 [3-DHS]
- HPLC product quantification (CsSDHa; 3-DHS reduction with NADPH): CsSDHa recombinant protein had an almost identical enzymatic activity for NADPH-dependent reduction of 3-DHS

Molecule: O=C(O)C1=C[C@@H](O)[C@@H](O)[C@H](O)C1 [SA]
- HPLC product quantification (CsSDHa; SA oxidation with NADP+): a lower enzymatic activity for NADP^+-dependent oxidation of SA
- HPLC product quantification (CsDQD/SDHb [1]): CsDQD/SDHb exhibited the lowest SA oxidation activity but had no 3-DHS reduction activity
- HPLC product quantification (CsDQD/SDHb [2]): six times higher oxidation activity of SA than CsDQD/SDHb

B1: CsDQD/SDHc (Camellia sinensis) (protein)
chain: MASGSFSFATSDVQTSSSGVRSGPTLLCTPLIGTTVDQMLIDMRKAKEIGADMVEIRLDCLREFNPRPDLQILIKQSPLPTLVTYRPIWESGQYEGDENKRQDALRLAMELGADYIDVELQVAQEFNNSISAKKPEKFKVIVSSQNFHSTPSAEAIGNLVARIQATGADIVKIVTTALDITDVARIFQITVHSQIPMIGIAMGERGLISRLLSPKFNGYLTYAALEAGAISAPGQPTVKDLLDLYNFRLIRPDTKVYGIIGKPVGHSKSPLLFNESFKKVGLNSVYVHLLVDDVKKFFSTYSSVDFAGFSCTIPHKEVALECMDEIDQIAKKIGAINNIVRRPDGTLKSYNTDYIGAISAIEDGLRESNGSSPATSSPLAGKLFVVLGAGGAGKSLAYGAQQKGARVVVANRTFERAKELAEKVGGKALTLEEVNDFHPEEGMILANTTSVGMKPNIDLTPISKEALKHYDLVFDAIYTPKDTRLLREARECGKIIVYGTEMLIRQGFEQYKNFTGLQAPEELFRELMSRHA
- Km [3]: 267.244 µM
- kcat/Km [3]: 193 M⁻¹ s⁻¹
- Km [4]: 330.933 µM
- kcat/Km [4]: 507 M⁻¹ s⁻¹
- Km [5]: 114.553 µM
- kcat/Km [5]: 372 M⁻¹ s⁻¹
- Km [6]: 199.653 µM
- kcat/Km [6]: 536 M⁻¹ s⁻¹

B2: CsDQD/SDHd (Camellia sinensis) (protein)
chain: MTLSSIPISEGGRRNPTMICAPVMAENVDQMLLMMRKAKELGADLVEVRIDYLKNFSPHHDLQILIKQCPLPTLITYRPTWEGGQFDGDETRRQAALRQAVELGADYIDIELKVADEFYKLIQGKKPEKVKIIVSSHNYENTPSAEEIGNLAARIQATGADIVKIATTAQDITDSARIFQLLAHSQVPTIGIVMGERGLMSRILCAKFGGFLTFGALESGIVSAPGQPTLKDLLELYNFRQIGPDTKVHGVIGNPIGHSKSPHLYNTAFRSAGFNGIYLPLLVDSVANFFNTYSSPDFVGYSYTIPHKEAGLKCCDEVDPIAEAIGAISCMVRKPSDGKLIGYNVDYLGAIGAIEEALGGSNGSSNGAVSPLASKLFVVIGAGGAGKALAYGGKEKGARVVVANRTYEKAKELASKVDGEAITLAELDDFHPEDGMILANTTSVGMKPKTDATPISKKALNRYSLVFGAIYTPKWTRLLQEAQDSGAKVVFGTEMFINQAFVQFERFTGMPAPKELIRETLAKNT
- Km [7]: 248.798 µM
- kcat/Km [7]: 197 M⁻¹ s⁻¹
- Km [8]: 465.971 µM
- kcat/Km [8]: 99.5 M⁻¹ s⁻¹
- Km [9]: 46.342 µM
- kcat/Km [9]: 128 M⁻¹ s⁻¹
- Km [10]: 610.643 µM
- kcat/Km [10]: 138 M⁻¹ s⁻¹

B3: CsDQD/SDHa (Camellia sinensis) (protein)
chain: MELVAPVVAGCGVKMESEGMRKNSTLICVPLMADSVDQMLIYMNKAKLNGADLVEVRLDSLKSFNPPLDIETLIKRCPLPTLFTYRPKWEGGMYDGDESSRLEALQLAMELGADYIDVELQVIHEFNSSMHGKKPAKCKLIVSSHNYENTPSVEDLGNLVVKIQATGADIVKIATTALDITDAARVFQITVHSQVRGVPIIAMVMGERGLMARILCPKFGGYLTFGTLESGIVSAPGQPTMDDLVNLYNIRQIGPDTKVFGIIGKPVGHSKSPILYNEAFKKVGFNGVYLHLLVDDVANFLQTYSSTDFAGFSCTIPHKEAALKCCDEVDPVAKSIGAVNCIVRKSDGKFFGCNTDYVGAITAIEDALGGLQHVNGMVVSPLSGKLFVVIGAGGAGKALAYGAKAKGAKVVIANRTYERAKEIADTIGGDALSLADLSNFHPEDGMILANTTSIGMQPKVDETPVPKQALKSYALVFDAVYTPKITRLLREAEESGAKIVTGVEMFIGQAYEQFERFTGLPAPKELFGKIMAKY
- Km [11]: 270.306 µM
- kcat/Km [11]: 746 M⁻¹ s⁻¹
- Km [12]: 286.576 µM
- kcat/Km [12]: 1410 M⁻¹ s⁻¹
- Km [13]: 138.031 µM
- kcat/Km [13]: 845 M⁻¹ s⁻¹
- Km [14]: 272.782 µM
- kcat/Km [14]: 562 M⁻¹ s⁻¹
